{"source": "patent US20250215048A1", "about": "(MACFARLANE BURNET INSTITUTE FOR MEDICAL RESEARCH AND PUBLIC …, published 2025)", "molecules": {"B1": {"name": "S52 Δ123 glycoproteins, unfractionated (cell culture supernatant and TALON eluate) (other)", "chain": "ETHQKLQLVNTNGSWHINSTALNCNESINTGFIAGLFYYHKFNSTGCPQRLSSCGSSGCWHYAPRPCSVVPASSVCGPVYCFTPSPVVVGTTDIKGKPTYNWGENETDVFLLESLRPPSGRWFGCAWMNSTGFLKTCGAPPCGSSGCPTDCFRKHPEATYSRCGAGPWLTPRCMVDYPYRLWHYPCTVNFTLFKVRMFVGGFEHRFTAACNWTRGERCNIEDRDRSEHHHHHH", "notes": "Mixture of monomers, dimers and HMW forms as secreted by FS293F cells"}, "B2": {"name": "Con1 Δ123 glycoproteins, unfractionated (cell culture supernatant and TALON eluate) (other)", "chain": "GTYGSSGQLVNTNGSWHINRTALNCNDSLNTGFLAALFYVHKFNSSGCPERMASCGSSGCWHYAPRPCGIVPAAQVCGPVYCFTPSPVVVGTTDRFGVPTYSWGENETDVLLLNNTRPPQGNWFGCTWMNSTGFTKTCGGPPCGSSGCPTDCFRKHPEATYTKCGSGPWLTPRCLVHYPYRLWHYPCTVNFTIFKVRMYVGGVEHRLEAACNWTRGERCNLEDRDRSEHHHHHH", "notes": "as for B1"}}, "key": {"[1]": {"target": "H77c HMW1 Δ123 (hepatitis C virus genotype 1a, strain H77c) (UniProt P27958)", "experiment": "direct ELISA on coated antigen; ratio of curve mid-points"}, "[2]": {"target": "S52 HMW1 Δ123 (hepatitis C virus genotype 3a, strain S52)", "experiment": "direct ELISA on coated antigen; ratio of curve mid-points"}, "[3]": {"target": "Con1 HMW1 Δ123 (hepatitis C virus genotype 1b, strain Con1) (UniProt Q9WMX2)", "experiment": "direct ELISA on coated antigen; ratio of curve mid-points"}, "[4]": {"target": "T1, dimeric maltose binding protein (MBP)-CD81-LEL113-201 (UniProt P60033 113-201)", "T1 construct": "range 113-201; Coated on ELISA plates; The order of the parts follows the printed name, and no linker is stated; also called recombinant CD81", "T1 sequence": "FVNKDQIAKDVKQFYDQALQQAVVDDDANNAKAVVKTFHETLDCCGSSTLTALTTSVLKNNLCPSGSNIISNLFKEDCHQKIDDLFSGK", "experiment": "sandwich ELISA, MBP-CD81-LEL coated, anti-HIS detection"}}, "data": [{"molecule": "AR3B (antibody)", "values": [{"measurement": "binding to HMW1 Δ123 relative to monomeric Δ123 of corresponding strain", "setting": "[1]", "result": "< 0.37", "unit": "fold"}, {"measurement": "binding to HMW1 Δ123 relative to H77c HMW1 Δ123", "setting": "[2]", "result": "< 1.68", "unit": "fold"}, {"measurement": "binding to HMW1 Δ123 relative to monomeric Δ123 of corresponding strain", "setting": "[2]", "result": "< 0.09", "unit": "fold"}, {"measurement": "binding to HMW1 Δ123 relative to H77c HMW1 Δ123", "setting": "[3]", "result": "< 6.58", "unit": "fold"}, {"measurement": "binding to HMW1 Δ123 relative to monomeric Δ123 of corresponding strain", "setting": "[3]", "result": 0.17, "unit": "fold"}]}, {"molecule": "AR3C (antibody)", "values": [{"measurement": "binding to HMW1 Δ123 relative to monomeric Δ123 of corresponding strain", "setting": "[1]", "result": 0.18, "unit": "fold"}, {"measurement": "binding to HMW1 Δ123 relative to H77c HMW1 Δ123", "setting": "[2]", "result": 6.17, "unit": "fold"}, {"measurement": "binding to HMW1 Δ123 relative to monomeric Δ123 of corresponding strain", "setting": "[2]", "result": 0.54, "unit": "fold"}, {"measurement": "binding to HMW1 Δ123 relative to H77c HMW1 Δ123", "setting": "[3]", "result": 3.92, "unit": "fold"}, {"measurement": "binding to HMW1 Δ123 relative to monomeric Δ123 of corresponding strain", "setting": "[3]", "result": 0.13, "unit": "fold"}]}, {"molecule": "AR3D (antibody)", "values": [{"measurement": "binding to HMW1 Δ123 relative to monomeric Δ123 of corresponding strain", "setting": "[1]", "result": "< 0.17", "unit": "fold"}, {"measurement": "binding to HMW1 Δ123 relative to H77c HMW1 Δ123", "setting": "[3]", "result": 4.73, "unit": "fold"}, {"measurement": "binding to HMW1 Δ123 relative to monomeric Δ123 of corresponding strain", "setting": "[3]", "result": 0.08, "unit": "fold"}]}, {"molecule": "CBH-4B (antibody)", "values": [{"measurement": "binding to HMW1 Δ123 relative to monomeric Δ123 of corresponding strain", "setting": "[1]", "result": "< 0.27", "unit": "fold"}, {"measurement": "binding to HMW1 Δ123 relative to H77c HMW1 Δ123", "setting": "[2]", "result": "< 1", "unit": "fold"}, {"measurement": "binding to HMW1 Δ123 relative to monomeric Δ123 of corresponding strain", "setting": "[2]", "result": "< 0.62", "unit": "fold"}, {"measurement": "binding to HMW1 Δ123 relative to H77c HMW1 Δ123", "setting": "[3]", "result": "< 1", "unit": "fold"}, {"measurement": "binding to HMW1 Δ123 relative to monomeric Δ123 of corresponding strain", "setting": "[3]", "result": "< 0.24", "unit": "fold"}]}, {"molecule": "CBH-4D (antibody)", "values": [{"measurement": "binding to HMW1 Δ123 relative to monomeric Δ123 of corresponding strain", "setting": "[1]", "result": "< 0.27", "unit": "fold"}, {"measurement": "binding to HMW1 Δ123 relative to H77c HMW1 Δ123", "setting": "[2]", "result": "< 1.68", "unit": "fold"}, {"measurement": "binding to HMW1 Δ123 relative to monomeric Δ123 of corresponding strain", "setting": "[2]", "result": "< 0.07", "unit": "fold"}, {"measurement": "binding to HMW1 Δ123 relative to H77c HMW1 Δ123", "setting": "[3]", "result": "< 1.23", "unit": "fold"}, {"measurement": "binding to HMW1 Δ123 relative to monomeric Δ123 of corresponding strain", "setting": "[3]", "result": "< 0.11", "unit": "fold"}]}, {"molecule": "HC-11 (antibody)", "values": [{"measurement": "binding to HMW1 Δ123 relative to monomeric Δ123 of corresponding strain", "setting": "[1]", "result": 0.21, "unit": "fold"}, {"measurement": "binding to HMW1 Δ123 relative to H77c HMW1 Δ123", "setting": "[2]", "result": 1, "unit": "fold"}, {"measurement": "binding to HMW1 Δ123 relative to monomeric Δ123 of corresponding strain", "setting": "[2]", "result": "< 0.2", "unit": "fold"}, {"measurement": "binding to HMW1 Δ123 relative to H77c HMW1 Δ123", "setting": "[3]", "result": 6.97, "unit": "fold"}, {"measurement": "binding to HMW1 Δ123 relative to monomeric Δ123 of corresponding strain", "setting": "[3]", "result": 0.28, "unit": "fold"}]}, {"molecule": "HCV1 (antibody)", "values": [{"measurement": "binding to HMW1 Δ123 relative to monomeric Δ123 of corresponding strain", "setting": "[1]", "result": 1.21, "unit": "fold"}, {"measurement": "binding to HMW1 Δ123 relative to H77c HMW1 Δ123", "setting": "[2]", "result": 2.08, "unit": "fold"}, {"measurement": "binding to HMW1 Δ123 relative to monomeric Δ123 of corresponding strain", "setting": "[2]", "result": 0.92, "unit": "fold"}, {"measurement": "binding to HMW1 Δ123 relative to H77c HMW1 Δ123", "setting": "[3]", "result": 2.05, "unit": "fold"}, {"measurement": "binding to HMW1 Δ123 relative to monomeric Δ123 of corresponding strain", "setting": "[3]", "result": 1.46, "unit": "fold"}]}, {"molecule": "B1", "values": [{"measurement": "binding result", "setting": "[4]", "result": "binds"}]}, {"molecule": "B2", "values": [{"measurement": "binding result", "setting": "[4]", "result": "binds"}]}]}
